Our source for the EC50 and Kd values is US20240209081A1 (GENOME, published 2024).

In assay [1] the target is T1, human CNTN4-10×His (human, UniProt Q8IWV2 19-1000).
T1 construct: also called CNTN-4 protein
T1 sequence: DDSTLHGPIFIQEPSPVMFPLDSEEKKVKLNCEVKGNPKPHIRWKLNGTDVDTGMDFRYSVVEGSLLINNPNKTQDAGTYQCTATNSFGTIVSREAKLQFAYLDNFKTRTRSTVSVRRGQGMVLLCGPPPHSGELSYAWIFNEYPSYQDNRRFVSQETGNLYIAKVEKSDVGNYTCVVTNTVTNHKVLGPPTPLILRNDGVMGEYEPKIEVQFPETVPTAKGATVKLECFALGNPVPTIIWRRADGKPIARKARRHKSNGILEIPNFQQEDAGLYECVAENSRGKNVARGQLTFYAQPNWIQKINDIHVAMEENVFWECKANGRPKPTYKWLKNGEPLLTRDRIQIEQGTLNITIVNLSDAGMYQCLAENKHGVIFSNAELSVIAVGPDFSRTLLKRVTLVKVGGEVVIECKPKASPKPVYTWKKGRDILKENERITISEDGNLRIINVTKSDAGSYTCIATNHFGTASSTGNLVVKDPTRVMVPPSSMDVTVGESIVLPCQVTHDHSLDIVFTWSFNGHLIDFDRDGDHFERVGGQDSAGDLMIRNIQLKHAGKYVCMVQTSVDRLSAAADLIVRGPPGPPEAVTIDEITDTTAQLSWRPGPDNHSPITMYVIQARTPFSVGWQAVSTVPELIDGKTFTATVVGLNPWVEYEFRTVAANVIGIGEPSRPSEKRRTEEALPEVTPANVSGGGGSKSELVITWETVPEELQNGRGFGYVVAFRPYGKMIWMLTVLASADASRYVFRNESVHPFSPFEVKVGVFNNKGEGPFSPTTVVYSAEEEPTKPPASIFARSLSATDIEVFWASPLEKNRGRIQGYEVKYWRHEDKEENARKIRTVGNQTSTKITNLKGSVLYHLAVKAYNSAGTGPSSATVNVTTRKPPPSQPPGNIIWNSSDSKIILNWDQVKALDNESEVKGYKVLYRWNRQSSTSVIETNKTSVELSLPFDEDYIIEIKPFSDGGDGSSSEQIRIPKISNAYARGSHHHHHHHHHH
The experiment in a line: ELISA on coated human CNTN4-10×His, competitor 500 nM CNTN4 receptor (APP) co-incubated. The protocol: (§1) An ELISA plate was coated with 20 nM of antigens human CNTN4-10×His. For antibody binding, a mixture of antibodies hAb-1 diluted to a final concentration of 0 to 1,000 nM and human CNTN4 receptors (Amyloid precursor protein, APP) diluted to 0 or 500 nM was bound to the antigens. HRP conjugated anti-human kappa antibodies were used as a secondary antibody for antibody detection. Color was developed using ABTS, which is a color developing reagent, and the absorbance at 405 nm was measured.
Background: An ELISA detects its analyte on a solid surface through an enzyme-linked reagent.

Assay [2] deals with T1, human CNTN4-10×His. The assay is described as follows: ELISA on coated human CNTN4-10×His, co-incubated with 0 nM CNTN4 receptor (APP); 0 nM CNTN-4 receptor (co-incubation). The protocol:
as §1

Assay [3] concerns the target T2, human CNTN4 recombinant protein (human, UniProt Q8IWV2 19-1000).
T2 construct: No tag is stated, so it is kept apart from human CNTN4-10×His, though it may be the same preparation; also called Human CNTN-4 protein
T2 sequence (looked up): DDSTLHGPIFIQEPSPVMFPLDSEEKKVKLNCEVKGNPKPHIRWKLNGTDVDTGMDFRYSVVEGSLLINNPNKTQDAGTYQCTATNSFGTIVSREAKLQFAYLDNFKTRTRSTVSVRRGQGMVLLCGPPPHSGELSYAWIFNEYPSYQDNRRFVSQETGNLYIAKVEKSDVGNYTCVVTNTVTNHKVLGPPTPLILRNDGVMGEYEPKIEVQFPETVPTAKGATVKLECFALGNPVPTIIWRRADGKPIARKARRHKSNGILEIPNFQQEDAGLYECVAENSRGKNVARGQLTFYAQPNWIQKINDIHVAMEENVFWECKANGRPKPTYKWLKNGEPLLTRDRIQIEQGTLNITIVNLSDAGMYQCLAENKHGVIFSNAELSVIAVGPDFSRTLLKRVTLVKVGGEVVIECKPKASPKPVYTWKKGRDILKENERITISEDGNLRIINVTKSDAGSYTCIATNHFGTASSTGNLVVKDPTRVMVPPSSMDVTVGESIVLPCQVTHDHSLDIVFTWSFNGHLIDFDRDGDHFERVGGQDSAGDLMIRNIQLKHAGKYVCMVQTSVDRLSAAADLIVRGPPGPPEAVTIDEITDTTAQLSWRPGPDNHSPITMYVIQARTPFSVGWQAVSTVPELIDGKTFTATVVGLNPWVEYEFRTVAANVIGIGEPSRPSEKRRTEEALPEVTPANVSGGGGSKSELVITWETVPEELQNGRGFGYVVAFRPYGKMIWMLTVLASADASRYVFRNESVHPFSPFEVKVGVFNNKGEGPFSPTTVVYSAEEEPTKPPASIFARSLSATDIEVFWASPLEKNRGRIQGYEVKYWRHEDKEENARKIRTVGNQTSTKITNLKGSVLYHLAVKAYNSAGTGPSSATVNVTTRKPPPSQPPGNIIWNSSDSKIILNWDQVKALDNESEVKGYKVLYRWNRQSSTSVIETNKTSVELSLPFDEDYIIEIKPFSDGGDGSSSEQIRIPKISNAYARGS
The assay is described as follows: SPR (CM5 chip), hAb-1 captured by anti-human IgG Fc, human CNTN4 400 nM to 0.78 nM as analyte. The protocol:
SPR test was performed on the monoclonal antibody hAb-1 prepared in Example 2. More specifically, in order to bind anti-human IgG Fc (capture antibody) using amine coupling, CM5 chip was mounted, running buffer was allowed to flow, the chip was activated, and then capture antibody was attached thereto. […] to which capture antibody was not attached was deactivated using ethanolamine, and then regeneration was performed using 3M magnesium chloride to clear analytes except capture antibody. The hAb-1 prepared at a concentration of 0.05 μg/mL was allowed to flow for 30 seconds at a rate of 10 μL/min for binding. Thereafter, human CNTN4 (400 nM to 0.78 nM) prepared by sequential dilution as an antigen was allowed to flow at a rate of 30 μL/min for 3 minutes to be bound, and dissociation was performed for 5 minutes.
Then, in order to clear all analytes attached to the capture antibody, a regeneration solution (3M magnesium chloride) was allowed to flow at a rate of […] for 30 seconds, and regeneration was performed. For each concentration of antigen, binding of hAb-1, binding of antigen, dissociation, and regeneration were repeated in order.

Assay [4] concerns the target T1, human CNTN4-10×His. The assay is described as follows: ELISA, plate coated with 20 nM antigen, HRP anti-human kappa detection. The protocol:
(§2) ELISA test was performed on the monoclonal antibody hAb-1 prepared in Example 2. An ELISA plate was coated with 20 nM of antigens (human CNTN4-10×His or mouse CNTN4-10×His). For antibody binding, antibodies hAb-1 were serially diluted from a maximum of 1 μM to 0.0001 nM, thereby binding to the antigen. HRP conjugated anti-human kappa antibodies were used as a secondary antibody for antibody detection. Color was developed using ABTS, which is a color developing reagent, and the absorbance at 405 nm was measured.

The target in another assay is T3, mouse CNTN4-10×His (mouse, UniProt Q69Z26 19-1000).
T3 sequence: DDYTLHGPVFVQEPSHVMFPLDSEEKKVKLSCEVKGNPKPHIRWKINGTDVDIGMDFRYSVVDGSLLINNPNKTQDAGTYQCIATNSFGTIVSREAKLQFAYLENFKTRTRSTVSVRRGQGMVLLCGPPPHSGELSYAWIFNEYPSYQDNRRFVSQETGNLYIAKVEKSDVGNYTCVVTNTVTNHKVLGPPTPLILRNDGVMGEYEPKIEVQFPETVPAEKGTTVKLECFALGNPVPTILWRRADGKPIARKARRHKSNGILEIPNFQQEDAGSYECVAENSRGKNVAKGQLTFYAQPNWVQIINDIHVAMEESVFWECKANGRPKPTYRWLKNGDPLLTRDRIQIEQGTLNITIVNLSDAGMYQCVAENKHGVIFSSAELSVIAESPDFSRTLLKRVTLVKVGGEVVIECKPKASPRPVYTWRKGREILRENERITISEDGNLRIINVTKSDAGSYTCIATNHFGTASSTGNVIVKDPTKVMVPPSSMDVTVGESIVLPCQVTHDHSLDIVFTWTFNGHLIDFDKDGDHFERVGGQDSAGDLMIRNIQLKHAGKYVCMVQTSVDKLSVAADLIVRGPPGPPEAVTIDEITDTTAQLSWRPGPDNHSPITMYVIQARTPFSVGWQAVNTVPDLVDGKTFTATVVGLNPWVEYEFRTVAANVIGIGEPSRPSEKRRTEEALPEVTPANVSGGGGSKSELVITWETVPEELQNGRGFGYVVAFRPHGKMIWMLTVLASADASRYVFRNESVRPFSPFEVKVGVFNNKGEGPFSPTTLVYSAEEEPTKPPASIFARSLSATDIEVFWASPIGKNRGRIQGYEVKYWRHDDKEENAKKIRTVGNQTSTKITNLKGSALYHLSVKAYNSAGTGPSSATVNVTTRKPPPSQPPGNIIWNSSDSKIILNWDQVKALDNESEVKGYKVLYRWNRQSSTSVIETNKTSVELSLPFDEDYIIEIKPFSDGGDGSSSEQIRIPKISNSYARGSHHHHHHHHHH
The description is as above. The protocol:
as §2

B1: anti-CNTN4 IgG4-S228P monoclonal antibody hAb-1 (antibody, V domains shown)
VH: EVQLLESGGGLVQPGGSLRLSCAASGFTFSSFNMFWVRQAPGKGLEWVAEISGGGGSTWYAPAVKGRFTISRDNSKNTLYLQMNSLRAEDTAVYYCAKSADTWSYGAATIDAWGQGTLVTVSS
VL: ELTQDPAVSVALGQTVRITCSGSSGSYGWYQQKPGQAPVLVIYDNTNRPSGIPDRFSGSSSGNTASLTITGAQAEDEADYYCGGYDGSTDVFGGGTKLTVL
Regarding B1, the EC50 – broadly, the concentration that produces a half-maximal response – with human CNTN4-10×His [1] is 0.24 nM; with human CNTN4-10×His [2], 0.17 nM; with human CNTN4-10×His [4], 0.17 nM; with mouse CNTN4-10×His, 0.12 nM. For the same molecule, the Kd – broadly, the free concentration of one partner at which half of the binding sites on the other are occupied at equilibrium, for simple one-to-one binding – in assay [3] amounted to 35.6 nM.
